In US20150197564A1 (Regeneron, published 2015):

Key:
hANGPTL3(17-170)-His [1] = biological target: T1, hANGPTL3(17-170)-His (human, UniProt Q9Y5C1 17-170); assay: SPR Biacore, antigen captured, 25C, pH 5.75, PBSP
T1 construct: also called N-terminal coiled-coil domain of hANGPTL3 with a C-terminal hexahistidine tag; Human ANGPTL3 (17-170)-His
T1 sequence: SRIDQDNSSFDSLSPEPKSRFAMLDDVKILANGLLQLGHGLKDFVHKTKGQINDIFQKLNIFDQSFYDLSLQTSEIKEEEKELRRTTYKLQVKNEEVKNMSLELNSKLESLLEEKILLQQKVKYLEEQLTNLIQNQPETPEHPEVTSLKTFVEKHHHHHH
Procedure: (§1) All kinetic binding experiments were performed at 25° C. or 37° C. on a BIACORE™ T200 label-free molecular interaction instrument (GE Healthcare) using a CM5 sensor chip. Briefly, an antigen capture surface was generated by covalently coupling either an anti-mouse IgG-specific antibody (anti-mFc; GE Healthcare; catalog #BR-1008-38) or an anti-pentahistidine-specific antibody (Qiagen; catalog #34660) to the surface of a CM5 sensor chip using a standard amine coupling method.

rANGPTL3(17-240)-mmH = biological target: T2, rANGPTL3(17-240)-mmH (Rattus norvegicus); assay: SPR Biacore, antigen captured, 37C, pH 7.4, HBS-EP
T2 construct: also called N-terminal coiled-coil domain of ANGPTL3 from Rattus norvegicus with myc-myc-hexahistidine tag
T2 chain: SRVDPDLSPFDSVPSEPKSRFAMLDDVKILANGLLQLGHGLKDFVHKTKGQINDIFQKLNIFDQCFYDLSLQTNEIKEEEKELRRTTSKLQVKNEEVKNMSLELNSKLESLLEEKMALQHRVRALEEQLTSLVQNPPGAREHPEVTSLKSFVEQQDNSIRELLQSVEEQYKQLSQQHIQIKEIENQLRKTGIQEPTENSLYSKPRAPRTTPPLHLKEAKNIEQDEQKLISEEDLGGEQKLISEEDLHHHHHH

hANGPTL3(17-460)-His [2] = biological target: T3, hANGPTL3(17-460)-His (human, UniProt Q9Y5C1 17-460); assay: SPR Biacore, antigen captured, 37C, pH 7.4, HBS-EP
T3 construct: Bought protein (R&D Systems); also called full-length mature human ANGPTL3 with a C-terminal decahistidine tag; Human ANGPTL3 (17-460)-His
T3 sequence: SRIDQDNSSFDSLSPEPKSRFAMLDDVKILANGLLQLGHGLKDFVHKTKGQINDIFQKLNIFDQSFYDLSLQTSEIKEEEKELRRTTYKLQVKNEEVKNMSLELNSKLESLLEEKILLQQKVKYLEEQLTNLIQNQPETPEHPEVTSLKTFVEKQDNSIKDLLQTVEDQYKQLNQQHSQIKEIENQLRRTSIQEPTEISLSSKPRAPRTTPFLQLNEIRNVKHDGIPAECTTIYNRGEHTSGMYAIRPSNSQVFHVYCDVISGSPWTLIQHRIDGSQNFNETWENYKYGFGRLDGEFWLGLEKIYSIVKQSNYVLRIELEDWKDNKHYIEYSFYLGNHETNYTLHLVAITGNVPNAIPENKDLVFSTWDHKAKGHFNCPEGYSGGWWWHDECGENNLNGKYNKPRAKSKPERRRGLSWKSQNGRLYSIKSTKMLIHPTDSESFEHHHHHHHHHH

hANGPTL3(17-170)-His [3] = biological target: T1, hANGPTL3(17-170)-His; assay: SPR Biacore, antigen captured, 37C, pH 7.4, HBS-EP
mANGPTL3(17-240)-His = biological target: T4, mANGPTL3(17-240)-His (Mus musculus, UniProt Q9R182 17-240); assay: SPR Biacore, antigen captured, 37C, pH 7.4, HBS-EP
T4 construct: also called N-terminal coiled-coil domain of ANGPTL3 from Mus musculus with a hexahistidine tag; Mouse ANGPTL3 (17-240)-His
T4 sequence: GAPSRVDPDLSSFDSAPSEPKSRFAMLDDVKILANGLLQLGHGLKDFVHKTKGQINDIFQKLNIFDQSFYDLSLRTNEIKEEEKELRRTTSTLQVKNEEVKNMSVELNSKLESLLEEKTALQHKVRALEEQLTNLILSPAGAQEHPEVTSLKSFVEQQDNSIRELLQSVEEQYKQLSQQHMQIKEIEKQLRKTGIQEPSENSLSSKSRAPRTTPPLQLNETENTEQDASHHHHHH

hANGPTL3(17-460)-His [4] = biological target: T3, hANGPTL3(17-460)-His; assay: SPR Biacore, antigen captured, 25C, pH 7.2, PBSP
Procedure: as §1

hANGPTL3(17-170)-His [5] = biological target: T1, hANGPTL3(17-170)-His; assay: SPR Biacore, antigen captured, 25C, pH 7.2, PBSP
Procedure: as §1

MfANGPTL3(17-170)-mmH = biological target: T5, MfANGPTL3(17-170)-mmH (Macaca fascicularis); assay: SPR Biacore, antigen captured, 25C, pH 7.2, PBSP
T5 construct: also called N-terminal coiled-coil domain of ANGPTL3 from Macaca fascicularis with myc-myc-hexahistidine tag; Monkey ANGPTL3 (17-170)-mmH
T5 chain: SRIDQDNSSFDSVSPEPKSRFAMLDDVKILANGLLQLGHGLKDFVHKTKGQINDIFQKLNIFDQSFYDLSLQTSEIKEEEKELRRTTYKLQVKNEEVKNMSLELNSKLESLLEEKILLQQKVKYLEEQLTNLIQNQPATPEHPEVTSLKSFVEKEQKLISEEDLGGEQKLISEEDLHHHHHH
Procedure: as §1

B1: H4H1276S (antibody, IgG4, V domains shown)
VH: EVQLVESGGGVIQPGGSLRLSCAASGFTFDDYAMNWVRQGPGKGLEWVSAISGDGGSTYYADSVKGRFTISRDNSKNSLYLQMNSLRAEDTAFFYCAKDLRNTIFGVVIPDAFDIWGQGTMVTVSS
VL: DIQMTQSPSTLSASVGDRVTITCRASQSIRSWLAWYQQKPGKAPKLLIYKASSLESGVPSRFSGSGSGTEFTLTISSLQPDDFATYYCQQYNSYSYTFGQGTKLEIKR
- Kd (hANGPTL3(17-170)-His [1]): 24 nM
- koff (hANGPTL3(17-170)-His [1]): 0.00672 s⁻¹
- kon (hANGPTL3(17-170)-His [1]): 280000 M⁻¹ s⁻¹
- t1/2 (hANGPTL3(17-170)-His [1]): 1.7 min
- Kd (rANGPTL3(17-240)-mmH): 0.94 nM
- koff (rANGPTL3(17-240)-mmH): 0.00193 s⁻¹
- kon (rANGPTL3(17-240)-mmH): 2.05e+06 M⁻¹ s⁻¹
- t1/2 (rANGPTL3(17-240)-mmH): 6 min
- Kd (hANGPTL3(17-460)-His [2]): 1.29 nM
- koff (hANGPTL3(17-460)-His [2]): 0.000812 s⁻¹
- kon (hANGPTL3(17-460)-His [2]): 632000 M⁻¹ s⁻¹
- t1/2 (hANGPTL3(17-460)-His [2]): 14.2 min
- Kd (hANGPTL3(17-170)-His [3]): 1.52 nM
- koff (hANGPTL3(17-170)-His [3]): 0.00241 s⁻¹
- kon (hANGPTL3(17-170)-His [3]): 1.59e+06 M⁻¹ s⁻¹
- t1/2 (hANGPTL3(17-170)-His [3]): 4.8 min
- Kd (mANGPTL3(17-240)-His): 1.18 nM
- koff (mANGPTL3(17-240)-His): 0.000964 s⁻¹
- kon (mANGPTL3(17-240)-His): 819000 M⁻¹ s⁻¹
- t1/2 (mANGPTL3(17-240)-His): 12 min
- Kd (hANGPTL3(17-460)-His [4]): 0.67 nM
- koff (hANGPTL3(17-460)-His [4]): 0.000402 s⁻¹
- kon (hANGPTL3(17-460)-His [4]): 599000 M⁻¹ s⁻¹
- t1/2 (hANGPTL3(17-460)-His [4]): 28.8 min
- Kd (hANGPTL3(17-170)-His [5]): 1.09 nM
- koff (hANGPTL3(17-170)-His [5]): 0.0011 s⁻¹
- kon (hANGPTL3(17-170)-His [5]): 1e+06 M⁻¹ s⁻¹
- t1/2 (hANGPTL3(17-170)-His [5]): 10.5 min
- Kd (MfANGPTL3(17-170)-mmH): 0.37 nM
- koff (MfANGPTL3(17-170)-mmH): 0.000538 s⁻¹
- kon (MfANGPTL3(17-170)-mmH): 1.45e+06 M⁻¹ s⁻¹
- t1/2 (MfANGPTL3(17-170)-mmH): 21.5 min
